The chains are these.
T1: Full-length RILPL2 as used in calorimetry (human, UniProt Q969X0 1-211)
T1 construct: also called RL2-FL
T1 sequence (looked up): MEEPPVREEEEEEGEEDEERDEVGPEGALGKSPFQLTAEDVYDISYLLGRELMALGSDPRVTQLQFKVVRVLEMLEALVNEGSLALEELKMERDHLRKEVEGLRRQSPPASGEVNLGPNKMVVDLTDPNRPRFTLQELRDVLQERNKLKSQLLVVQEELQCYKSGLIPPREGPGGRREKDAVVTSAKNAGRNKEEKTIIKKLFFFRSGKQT

B1: Rab8a(Q67L + T72E), phosphomimetic mutant, residues 1-181 (natural protein, human, UniProt P61006 1-181, looked up)
chain: MAKTYDYLFKLLLIGDSGVGKTCVLFRFSEDAFNSTFISTIGIDFKIRTIELDGKRIKLQIWDTAGLERFREITTAYYRGAMGIMLVYDITNEKSFDNIRNWIRNIEEHASADVEKMILGNKCDVNDKRQVSKERGEKLALDYGIKFMETSAKANINVENAFFTLARDIKAKMDKKLEGNS
notes: Rab8a, human, residues 1-181, Q67L + T72E; Tag removed with thrombin; also called Rab8^TE; Rab8TE; source: E. coli, purified (Ni2+-agarose, Superdex 75); not shown: His6, N-terminal, cleaved
B2: RILPL2 extended Rab-binding domain, residues 117-165, tag cleaved (domain or fragment, human, UniProt Q969X0 117-165, looked up)
chain: GPNKMVVDLTDPNRPRFTLQELRDVLQERNKLKSQLLVVQEELQCYKSG
notes: Parallel coiled-coil dimer in the crystal; source: E. coli BL21(DE3), purified (Ni2+-agarose, TEV cleavage, MonoS); not shown: His6, N-terminal, cleaved; MBP, N-terminal, cleaved
B3: pRab8a(Q67L), human Rab8a residues 1-181 phosphorylated at T72, GTP-bound (natural protein, UniProt P61006 1-181, looked up)
chain: B1 chain with E72T
modifications: phosphothreonine at 72 (pT72)
notes: Tag removed with thrombin (pET28a, NdeI/BamHI); also called pRab8(Q67L); phospho-Rab8a; source: E. coli, purified (Ni2+-agarose, Superdex 75), phosphorylated in vitro by MST3 kinase, separated on MonoS; not shown: His6, N-terminal, cleaved
B4: His6-RILPL2 129-165 synthetic peptide (minimal Rab-binding domain) (peptide, UniProt Q969X0 129-165, looked up)
chain: NRPRFTLQELRDVLQERNKLKSQLLVVQEELQCYKSG
notes: source: synthetic peptide (GenScript); not shown: His6, N-terminal, kept

Data set [1] has as its target B4. Kind of data set: ITC; Rab8^TE/pRab8a (400-600 uM) injected into RILPL2 (40-60 uM); 20 mM Tris-HCl, 150 mM NaCl, 5 mM MgCl2, 1 mM DTT, pH 7.5; triplicate. The following applies: both partners purified. On the technique in general: ITC needs no label: the signal is the heat of the interaction.
The target in data set [2] is B3. The description is as above. The settings on record: both partners purified.
Data set [3] deals with the molecule itself. Briefly: crystal structure; pRab8(Q67L):RL2^117, 1:1 molar ratio, 5 mg/mL; 150 mM DL-malic acid, 20% PEG3350; 1.9 A.
Data set [4] has as its target T1, Full-length RILPL2 as used in …. Kind of data set: ITC; Rab8^TE/pRab8a (400-600 uM) injected into RILPL2 (40-60 uM); 20 mM Tris-HCl, 150 mM NaCl, 5 mM MgCl2, 1 mM DTT, pH 7.5; triplicate. The following applies: both partners purified.
Data set [5] addresses B2. The description is as above. The following applies: both partners purified.
Data set [6] concerns the molecule itself. Kind of data set: crystal structure; Rab8^TE:RL2^129, 1:2 molar ratio protein/peptide, 12 mg/mL; 100 mM HEPES pH 7, 10% PEG 4000, 10% 2-propanol; 1.7 A.
Data set [7] concerns the target B1. Briefly: ITC; Rab8^TE/pRab8a (400-600 uM) injected into RILPL2 (40-60 uM); 20 mM Tris-HCl, 150 mM NaCl, 5 mM MgCl2, 1 mM DTT, pH 7.5; triplicate. The following applies: both partners purified.

Residue numbers refer to the chain shown, from its start. Names and notes keep the numbering of the source.

The text below walks through data of paper PMC8204342, “Dual arginine recognition of LRRK2 phosphorylated Rab GTPases” (Biophysical Journal, 2021).

On to B1, for which, in data set [1], the dH is -2.7 kcal/mol and the “stoichiometry N” value amounted to 1.03.

In data set [2], B2 came in with an equilibrium dissociation constant (Kd) of 540 nM. In addition, the binding result in data set [3] is listed as “binds”.

On to B3, for which, in data set [4], the dissociation constant Kd amounted to 1400 nM, the dH is -1.4 kcal/mol and the “stoichiometry N” value was 1.04. Besides, in data set [1], the dH was -5.1 kcal/mol and the “stoichiometry N” value amounted to 0.92. Further, in data set [5], the dH was -7.4 kcal/mol and the “stoichiometry N” value worked out at 1.1.

Take B4: the binding result in data set [6] is on record as “binds”. For the same molecule, the Kd was determined as 3400 nM in data set [7] and 3300 nM in data set [2].

As usually defined, the stoichiometry N is a count of units in the complex or per binding partner. What is called Kd is the equilibrium constant for the complex coming apart.
